This note sets out measurements from patent US20170313754A1 (PROTAGONIST THERAPEUTICS, published 2017).

Numbered stars: 1 amine (or outer) side, 2 acyl side, 3 side chain; on linkers, the order of the positions; unused ones are H or OH. Bridge positions count the residues as written; N and C are the ends. Square brackets hold non-standard residues; d marks the D form. Ends that are not written are not given here. * marks the point of attachment. Ida = iminodiacetic acid, O=C(CN(CC(=O)[*:3])[*:1])[*:2]; Dip = N[C@H](C(=O)O)C(c1ccccc1)c1ccccc1; Palmitoyl = CCCCCCCCCCCCCCCC(=O)*; pGlu = O=C1CC[C@@H](C(=O)O)N1; β3hP = O=C(O)C[C@@H]1CCCN1; Isovaleryl = CC(C)CC(=O)*; Isobutyryl = CC(C)C(=O)*; Octanoyl = CCCCCCCC(=O)*; βAla = NCCC(=O)O; Sar = CNCC(=O)O Bounds are passed on as bounds.

For test [1], the target named is T1, human ferroportin (SLC40A1) fused in frame with GFP, stably expressed in HEK293 cells (human, UniProt Q9NP59 1-571).
T1 sequence (looked up): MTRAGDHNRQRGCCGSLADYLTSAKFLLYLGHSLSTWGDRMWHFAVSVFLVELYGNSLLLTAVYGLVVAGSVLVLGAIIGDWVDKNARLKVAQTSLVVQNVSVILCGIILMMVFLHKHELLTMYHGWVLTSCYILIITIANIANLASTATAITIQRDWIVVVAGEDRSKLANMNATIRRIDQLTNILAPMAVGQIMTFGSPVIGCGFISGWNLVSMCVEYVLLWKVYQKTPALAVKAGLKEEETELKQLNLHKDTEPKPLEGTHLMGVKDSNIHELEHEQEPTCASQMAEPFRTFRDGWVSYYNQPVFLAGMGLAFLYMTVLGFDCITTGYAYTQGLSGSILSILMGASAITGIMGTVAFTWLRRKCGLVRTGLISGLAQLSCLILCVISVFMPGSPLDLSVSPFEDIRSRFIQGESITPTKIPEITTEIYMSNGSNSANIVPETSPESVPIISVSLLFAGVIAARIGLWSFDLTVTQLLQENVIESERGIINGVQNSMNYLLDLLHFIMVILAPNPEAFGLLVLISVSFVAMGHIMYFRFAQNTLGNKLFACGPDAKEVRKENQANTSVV
As to the kind of experiment: cell-based or functional assay.

Test [2] concerns the target T2, human ferroportin (SLC40A1) fused in frame with GFP, stably expressed in HEK293 cells (human, UniProt Q9NP59 1-571).
T2 sequence (looked up): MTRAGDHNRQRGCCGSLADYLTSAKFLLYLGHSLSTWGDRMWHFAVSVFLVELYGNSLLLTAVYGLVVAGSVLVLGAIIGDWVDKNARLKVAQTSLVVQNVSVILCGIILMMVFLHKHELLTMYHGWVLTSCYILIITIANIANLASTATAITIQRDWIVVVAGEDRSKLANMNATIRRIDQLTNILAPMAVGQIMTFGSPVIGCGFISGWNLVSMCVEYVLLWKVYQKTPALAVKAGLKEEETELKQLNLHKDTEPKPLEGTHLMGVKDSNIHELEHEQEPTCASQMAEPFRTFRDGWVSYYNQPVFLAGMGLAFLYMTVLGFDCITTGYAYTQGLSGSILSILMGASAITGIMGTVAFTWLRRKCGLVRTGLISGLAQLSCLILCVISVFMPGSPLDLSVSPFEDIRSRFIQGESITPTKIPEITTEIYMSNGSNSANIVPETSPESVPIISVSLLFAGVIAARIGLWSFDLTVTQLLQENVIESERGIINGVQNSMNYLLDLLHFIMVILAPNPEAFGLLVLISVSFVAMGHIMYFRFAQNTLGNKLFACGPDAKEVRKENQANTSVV
Nature of the test: cell-based or functional assay. The source holds these as a separate data set.

For the molecule Isovaleryl-STHAPCIKFEPRSKGWECK-NH2 (disulfide 6-18 (inferred)) [Isovaleric acid-STHAPCIKFEPRSKGWECK-NH2], the “Potency EC50 (nM), ferroportin-GFP internalization/degradation” value in test [1] is greater than 10000 nM.

B1: Hy-DTHFPC1IIFVC2HRSKGC2YWAVC1FW-NH2 (peptide)
peptide: H-DTHFPCIIFVCHRSKGCYWAVCFW-NH2
modifications: disulfide 11-17, 6-22
SMILES: CC[C@H](C)[C@@H]1NC(=O)[C@@H](NC(=O)[C@@H]2CCCN2C(=O)[C@H](Cc2ccccc2)NC(=O)[C@H](Cc2c[nH]cn2)NC(=O)[C@@H](NC(=O)[C@@H](N)CC(=O)O)[C@@H](C)O)CSSC[C@@H](C(=O)N[C@@H](Cc2ccccc2)C(=O)N[C@@H](Cc2c[nH]c3ccccc23)C(N)=O)NC(=O)[C@H](C(C)C)NC(=O)[C@H](C)NC(=O)[C@H](Cc2c[nH]c3ccccc23)NC(=O)[C@H](Cc2ccc(O)cc2)NC(=O)[C@@H]2CSSC[C@H](NC(=O)[C@H](C(C)C)NC(=O)[C@H](Cc3ccccc3)NC(=O)[C@H]([C@@H](C)CC)NC1=O)C(=O)N[C@@H](Cc1c[nH]cn1)C(=O)N[C@@H](CCCNC(=N)N)C(=O)N[C@@H](CO)C(=O)N[C@@H](CCCCN)C(=O)NCC(=O)N2
In the case of B1, the “Potency EC50 (nM)” value in test [2] was greater than 10000 nM.

B2: pGlu-THFPIC1IFVC2HRSKGC2YRRC1R-NH2 (peptide)
peptide: [pGlu]THFPICIFVCHRSKGCYRRCR-NH2
modifications: disulfide 11-17, 7-21
SMILES: CC[C@H](C)[C@@H]1NC(=O)[C@@H](NC(=O)[C@@H](NC(=O)[C@@H]2CCCN2C(=O)[C@H](Cc2ccccc2)NC(=O)[C@H](Cc2c[nH]cn2)NC(=O)[C@@H](NC(=O)[C@@H]2CCC(=O)N2)[C@@H](C)O)[C@@H](C)CC)CSSC[C@@H](C(=O)N[C@@H](CCCNC(=N)N)C(N)=O)NC(=O)[C@H](CCCNC(=N)N)NC(=O)[C@H](CCCNC(=N)N)NC(=O)[C@H](Cc2ccc(O)cc2)NC(=O)[C@@H]2CSSC[C@H](NC(=O)[C@H](C(C)C)NC(=O)[C@H](Cc3ccccc3)NC1=O)C(=O)N[C@@H](Cc1c[nH]cn1)C(=O)N[C@@H](CCCNC(=N)N)C(=O)N[C@@H](CO)C(=O)N[C@@H](CCCCN)C(=O)NCC(=O)N2
On to B2, for which, in test [2], the “Potency EC50” value stood at 260 nM.

As to H-DTHFRCIIFGPRSKGWVCK-NH2 (disulfide 6-18 (inferred)) [Hy-DTHFRCIIFGPRSKGWVCK-NH2], in test [2], the “Potency EC50 (nM)” value was greater than 1000 nM.

Turning to H-THFPCIIFGPRSKGWVCK-NH2 (disulfide 5-17 (inferred)) [Hy-THFPCIIFGPRSKGWVCK-NH2], the “Potency EC50 (nM)” value in test [2] was greater than 10000 nM.

In the case of H-DTHFGCIIFGPRSKGWVCK-NH2 (disulfide 6-18 (inferred)) [Hy-DTHFGCIIFGPRSKGWVCK-NH2], the “Potency EC50 (nM)” value in test [2] is greater than 1000 nM.

Regarding Isovaleryl-DTHAPCIKFEPRSK[Sar]WECK-NH2 (disulfide 6-18 (inferred)) [Isovaleric acid-DTHAPCIKFEPRSK-[Sarc]-WECK-NH2], the “Potency EC50 (nM), ferroportin-GFP internalization/degradation” value in test [1] is greater than 10000 nM.

In the case of Isovaleryl-SKHAPCIKFEPRSKGWECK-NH2 (disulfide 6-18 (inferred)) [Isovaleric acid-SKHAPCIKFEPRSKGWECK-NH2], the “Potency EC50 (nM), ferroportin-GFP internalization/degradation” value in test [1] is greater than 10000 nM.

As to H-DTHF[Sar]CIIFGPRSKGWVCK-NH2 (disulfide 6-18 (inferred)) [Hy-DTHF-[Sarc]-CIIFGPRSKGWVCK-NH2], the “Potency EC50 (nM)” value in test [2] is greater than 1000 nM.

Regarding Isovaleryl-THFPCIIFGPRSKGWVCK-NH2 (disulfide 5-17 (inferred)) [Isovaleric acid-THFPCIIFGPRSKGWVCK-NH2], the “Potency EC50 (nM)” value in test [2] was greater than 10000 nM.

Turning to H-DTHFPIAIFGPRSKGWVAM-NH2 [Hy-DTHFPIAIFGPRSKGWVAM-NH2], the “Potency EC50 (nM)” value in test [2] was greater than 10000 nM.

For Isovaleryl-DTHF[βAla]CIIFGPRSKGWVCK-NH2 (not fully specified (bridges); cysteine pairing not given here) [Isovaleric acid-DTHF-[β-Ala]-CIIFGPRSKGWVCK-NH2], in test [2], the “Potency EC50” value was 264 nM.

As to H-DTHFPCRRFGPRSKGWVC-NH2 (disulfide 6-18 (inferred)) [Hy-DTHFPCRRFGPRSKGWVC-NH2], the “Potency EC50 (nM)” value in test [2] was greater than 10000 nM.

For H-DTHFKCIIFGPRSKGWVCK-NH2 (disulfide 6-18 (inferred)) [Hy-DTHFKCIIFGPRSKGWVCK-NH2], the “Potency EC50 (nM)” value in test [2] is greater than 1000 nM.

Isovaleryl-DTHFGCIKFEPRSKEWVCK-NH2 (not fully specified (bridges); cysteine pairing not given here) [Isovaleric acid-DTHFGCIKFEPRSKEWVCK-NH2]: the “Potency EC50 (nM), ferroportin-GFP internalization/degradation” value in test [1] was greater than 1000 nM.

With Isovaleryl-DTEFPCIKFEPRSKEWVCK-NH2 (disulfide 6-18 (inferred)) [Isovaleric acid-DTEFPCIKFEPRSKEWVCK-NH2], in test [1], the “Potency EC50 (nM), ferroportin-GFP internalization/degradation” value was greater than 1000 nM.

B3: Isobutyric acid-DTHFPIC1IFVC2HRSKGC2YRRC1R-NH2 (peptide)
peptide: Isobutyryl-DTHFPICIFVCHRSKGCYRRCR-NH2
modifications: disulfide 11-17, 7-21
SMILES: CC[C@H](C)[C@@H]1NC(=O)[C@@H](NC(=O)[C@@H](NC(=O)[C@@H]2CCCN2C(=O)[C@H](Cc2ccccc2)NC(=O)[C@H](Cc2c[nH]cn2)NC(=O)[C@@H](NC(=O)[C@H](CC(=O)O)NC(=O)C(C)C)[C@@H](C)O)[C@@H](C)CC)CSSC[C@@H](C(=O)N[C@@H](CCCNC(=N)N)C(N)=O)NC(=O)[C@H](CCCNC(=N)N)NC(=O)[C@H](CCCNC(=N)N)NC(=O)[C@H](Cc2ccc(O)cc2)NC(=O)[C@@H]2CSSC[C@H](NC(=O)[C@H](C(C)C)NC(=O)[C@H](Cc3ccccc3)NC1=O)C(=O)N[C@@H](Cc1c[nH]cn1)C(=O)N[C@@H](CCCNC(=N)N)C(=O)N[C@@H](CO)C(=O)N[C@@H](CCCCN)C(=O)NCC(=O)N2
Take B3: in test [2], the “Potency EC50” value turned out to be 63 nM.

Take [Ida]TH[Dip][β3hP]ICIFGPRSKGWVCM-NH2 (disulfide 7-18 (inferred)) [[Ida]-TH-[Dpa]-[bhPro]-ICIFGPRSKGWVCM-NH2]: the “Potency EC50” value in test [2] worked out at 17 nM.

On to H-HFPCIIFGPRSKGWVCK-NH2 (disulfide 4-16 (inferred)) [Hy-HFPCIIFGPRSKGWVCK-NH2], for which, in test [2], the “Potency EC50 (nM)” value was greater than 10000 nM.

For the molecule Isovaleryl-DTHFPCIKFEPHSKEWVCK-NH2 (not fully specified (bridges); cysteine pairing not given here) [Isovaleric acid-DTHFPCIKFEPHSKEWVCK-NH2], the “Potency EC50 (nM), ferroportin-GFP internalization/degradation” value in test [1] is 80 nM.

As for Isovaleryl-HFPCIIFGPRSKGWVCK-NH2 (disulfide 4-16 (inferred)) [Isovaleric acid-HFPCIIFGPRSKGWVCK-NH2], the “Potency EC50 (nM)” value in test [2] is greater than 10000 nM.

With Isovaleryl-DTHFPCIKFEPRSK(Octanoyl)EWVCK-NH2 (disulfide 6-18 (inferred)) [Isovaleric acid-DTHFPCIKFEPRS-K(octanoic acid)-EWVCK-NH2], in test [1], the “Potency EC50 (nM), ferroportin-GFP internalization/degradation” value is 62 nM.

Take H-DTHF[βAla]CIIFGPRSKGWVCK-NH2 (disulfide 6-18 (inferred)) [Hy-DTHF-[β-Ala]-CIIFGPRSKGWVCK-NH2]: the “Potency EC50 (nM)” value in test [2] was greater than 1000 nM.

With Isovaleryl-DTHAPCIKF[Sar]PRSKGWECK-NH2 (disulfide 6-18 (inferred)) [Isovaleric acid-DTHAPCIKF-[Sarc]-PRSKGWECK-NH2], in test [1], the “Potency EC50 (nM), ferroportin-GFP internalization/degradation” value was greater than 10000 nM.

B4: Isobutyric acid-DTHFPIC1IFVC2HRSKGC2YRRC1R-NH2 (peptide)
peptide: Isobutyryl-DTHFPICIFVCHRSKGCYRRCR-NH2
modifications: disulfide 11-17, 7-21
SMILES: CC[C@H](C)[C@@H]1NC(=O)[C@@H](NC(=O)[C@@H](NC(=O)[C@@H]2CCCN2C(=O)[C@H](Cc2ccccc2)NC(=O)[C@H](Cc2c[nH]cn2)NC(=O)[C@@H](NC(=O)[C@H](CC(=O)O)NC(=O)C(C)C)[C@@H](C)O)[C@@H](C)CC)CSSC[C@@H](C(=O)N[C@@H](CCCNC(=N)N)C(N)=O)NC(=O)[C@H](CCCNC(=N)N)NC(=O)[C@H](CCCNC(=N)N)NC(=O)[C@H](Cc2ccc(O)cc2)NC(=O)[C@@H]2CSSC[C@H](NC(=O)[C@H](C(C)C)NC(=O)[C@H](Cc3ccccc3)NC1=O)C(=O)N[C@@H](Cc1c[nH]cn1)C(=O)N[C@@H](CCCNC(=N)N)C(=O)N[C@@H](CO)C(=O)N[C@@H](CCCCN)C(=O)NCC(=O)N2
B4: the “Potency EC50” value in test [2] was found to be 93 nM.

For the molecule Isovaleryl-DTHFPCIKFGPK(Palmitoyl)SKGWVCK-NH2 (not fully specified (bridges); cysteine pairing not given here) [Isovaleric acid-DTHFPCIKFGP-K(Palm)-SKGWVCK-NH2], in test [2], the “Potency EC50” value is 2 nM.

Regarding DTHFPCIKFKPRSKGWVCK (N-terminal isovaleric acid; Palm on the side chain of Lys 10; C-terminal amide) [Isovaleric acid-DTHFPCIKF-K(Palm)-PRSKGWVCK-NH2], the “Potency EC50” value in test [2] was 9 nM.

Regarding Isovaleryl-DTHAPCIKFEPRSKEWECK-NH2 (not fully specified (bridges); cysteine pairing not given here) [Isovaleric acid-DTHAPCIKFEPRSKEWECK-NH2], the “Potency EC50 (nM), ferroportin-GFP internalization/degradation” value in test [1] is greater than 10000 nM.
